Measured values as given in publication PMC12660843, “Using phage display for rational engineering of a higher-affinity humanized 3’ phosphohistidine-specific antibody” (Communications Chemistry, 2025).
Residue numbers refer to the chain shown, from its start. Names may count otherwise. *1 amine or outer side, *2 acyl side, *3 side chain or, on linkers, in order; H or OH if unused. Where no end group is shown, it is not given here. [ ]: non-standard residue; d: D form. The star is where a group is joined. 3‑pTza = 3-phosphotriazolyl alanine (also given as 3-phosphoryl-triazolylalanine); 3‑pHis = 3-phosphohistidine, O=C([C@H](Cc1cn(P(=O)(O)O)cn1)N[*:1])[*:2]; Biotin = O=C1N[C@H]2[C@H](CS[C@H]2CCCCC(=O)*)N1; Ahx = NCCCCCC(=O)O

T1: 3-pHis peptide (Biotin-AminocaproicAcid-A.G.A.G.H.A.G.A.G phosphorylated by phosphoramidate)
T1 construct: His-peptide, phosphorylated on His5; the phosphoramidate reaction gives a mixture of non-phosphorylated, 1-pHis, 3-pHis and di-pHis peptide; also called Biotinylated ACLYana-3-pHis; ACLYana-pHis; source: synthetic peptide, phosphorylated with potassium phosphoramidate; not shown: biotin, N-terminal, kept
T1 peptide: {Biotin-Ahx}-AGAG[3‑pHis]AGAG

T2: 3-pTza peptide (Biotin-AminocaproicAcid-A.G.A.G.3-pTza.A.G.A.G)
T2 chain: {Biotin-Ahx}-AGAG[3‑pTza]AGAG

T3: 3-pTza peptide (Biotin-AminocaproicAcid-A.G.A.G.3-pTza.A.G.A.G) (synthetic construct)
T3 chain: {Biotin-Ahx}-AGAG[3‑pTza]AGAG

B1: hSC44.20 IgG (antibody, V domains shown)
VH: EVQLVESGGGLVQPGGSLRLSCTASGFSIDSYGFSWVRQAPGKGLEHIGYLTAGGRAFYASWAKSRSTITRNTNENTVTLKMNSLRAEDTAVYYCAKLGTGSRFAIWGQGTLVTVSS
VL: DIQLTQSPSSLSASVGDRVTITCRASQSVWRNKNVAWYQQKPGKAPKRLIYAIASLYSGVPSRFSGSGSGTDFTLTISSLQPEDFATYYCVGHYGSENDAYYAFGQGTKVEIK
notes: human IgG1, kappa light chain
B2: hSC44.20.N32Y^L IgG (antibody, V domains shown)
VH: B1 VH
VL: B1 VL with N34Y
notes: human IgG1, kappa light chain
B3: hSC44.20.N32F^L IgG (antibody, V domains shown)
VH: B1 VH
VL: B1 VL with N34F
notes: human IgG1, kappa light chain
B4: rSC44 Fab (Fab, V domains shown)
VH: QSVKESGRGLVQPGGSLTLTCTASGFSIDSYGFSWVRQAPGKGLEHIGYLTAGGRAFYASWAKSRSTITRNTNENTVTLKMTSLTAADTATYFCAKLGSGNPVAIWGPGTLVTVSS
VL: QVLTQTPSFTSAAVGGTVTINCQSSQSVWRNKNLAWYQQKPGQPPKRLIYAIATLDSGVPSRFSGSGSGTQFTLTISDVQCDDAATYYCVGHYGSENDAYYAFGGGTEVVVK
B5: hSC44 Fab (Fab, V domains shown)
VH: B1 VH with T100S, S102N, R103P, F104V
VL: B1 VL with L4M
B6: hSC44.20.N32Y^L Fab (Fab, V domains shown)
VH: B1 VH
VL: B1 VL with L4M, N34Y
B7: hSC44.20 Fab (Fab, V domains shown)
VH: B1 VH
VL: B1 VL with L4M
B8: hSC44.20.N32F^L Fab (Fab, V domains shown)
VH: B1 VH
VL: B1 VL with L4M, N34F
B9: hSC44 IgG (antibody, V domains shown)
VH: B1 VH with T100S, S102N, R103P, F104V
VL: B1 VL with L4M
B10: rSC44 IgG (antibody, V domains shown)
VH: B4 VH
VL: B4 VL
notes: rabbit SC44-8 IgG heavy chain; rabbit IgG constant region; as the light chain of m9; Rabbit IgG; also called SC44-8; rSC44-8; copies: 2 + 2
B11: hSC44.20.N32F^L IgG (antibody, V domains shown)
VH: B1 VH
VL: B1 VL with L4M, N34F
notes: as the heavy chain of m4 (heavy chain of m2 with the stated CDR-H3 changes, Kabat numbering); as the light chain of m1 with N32F in CDR-L1 (Kabat numbering); source: Expi293, transfected, purified (CaptoL, SEC); copies: 2 + 2
B12: hSC44.20 IgG (antibody, V domains shown)
VH: B1 VH
VL: B1 VL with L4M
notes: as the heavy chain of m2 with the stated CDR-H3 changes (Kabat numbering); as the light chain of m1; source: Expi293, transfected, purified (CaptoL, SEC); copies: 2 + 2
B13: hSC44.1 IgG (antibody, V domains shown)
VH: B1 VH with R103P, F104I
VL: B1 VL with L4M
B14: hSC44.28 IgG (antibody, V domains shown)
VH: EVQLVESGGGLVQPGGSLRLSCTASGFSIDSYGFSWVRQAPGKGLEHIGYLTAGGRAFYASWAKSRSTITRNTNENTVTLKMNSLRAEDTAVYYCAKLGTGSPLAIWG
VL: B1 VL with L4M, N34F
B15: hSC44.3 IgG (antibody, V domains shown)
VH: B14 VH with L98I, T100S, L104V
VL: B1 VL with L4M
B16: hSC44.13 IgG (antibody, V domains shown)
VH: B14 VH with L104V
VL: B1 VL with L4M
B17: hSC44.8 IgG (antibody, V domains shown)
VH: B14 VH with L98I, P103R, L104V
VL: B1 VL with L4M
B18: hSC44.31 IgG (antibody, V domains shown)
VH: B1 VH with S102T, R103P
VL: B1 VL with L4M, N34Y
B19: hSC44.22 IgG (antibody, V domains shown)
VH: B14 VH with S102T, L104V
VL: B1 VL with L4M
B20: hSC44.20.N32Y^L IgG (antibody, V domains shown)
VH: B1 VH
VL: B1 VL with L4M, N34Y

Target: T1, 3-pHis peptide …
Assay: BLI; biotinylated peptide captured on streptavidin biosensors at 20 nM; IgG in solution at 20-200 nM; Octet HTX; 1x HBS-T, 1% BSA
Settings: both partners purified
Work on B1 yielded a Kd of 21 nM.

Target: T2, 3-pTza peptide …
Assay: as above
Settings: both partners purified
In the case of B1, the koff is reported as < 1e-07 s⁻¹ and the kon is reported as 257000 M⁻¹ s⁻¹.
B2 was tested, and the koff was < 1e-07 s⁻¹ and the kon was 35100 M⁻¹ s⁻¹.
B3 was tested, and the Kd was 1.54 nM, the koff was 5.73e-05 s⁻¹ and the kon was 37300 M⁻¹ s⁻¹.

Target: T1, 3-pHis peptide …
Assay: BLI; Octet RED96e; biotinylated peptides captured on streptavidin biosensors at 20 nM; Fab in solution, 20-200 nM; 1x HBS-T, 1% BSA
Settings: not given
Binder B4 has a Kd of 48.5 nM, a koff of 0.00591 s⁻¹ and a kon of 122000 M⁻¹ s⁻¹.
B5 gave a Kd of 40.5 nM, a koff of 0.00235 s⁻¹ and a kon of 57900 M⁻¹ s⁻¹.
B6 gave a Kd of 5.11 nM, a koff of 0.00066 s⁻¹ and a kon of 129000 M⁻¹ s⁻¹.
B7 was tested, and the Kd was 17.5 nM, the koff was 0.0042 s⁻¹ and the kon was 240000 M⁻¹ s⁻¹.
Work on B8 yielded a Kd of 6.63 nM, a koff of 0.000697 s⁻¹ and a kon of 105000 M⁻¹ s⁻¹.

These binders were tested against 3-pTza peptide (Biotin-AminocaproicAcid-A.G.A.G.3-pTza.A.G.A.G) in the same assay as above. Settings: not given.
In the case of B5, the Kd is reported as 1.5 nM.

Target: T1, 3-pHis peptide …
Assay: BLI; biotinylated peptide captured on streptavidin biosensors at 20 nM; IgG in solution at 20-200 nM; Octet HTX; 1x HBS-T, 1% BSA
Settings: both partners purified
Remark: another data set of the same source
B2 gave a koff of 2.61e-05 s⁻¹ and a kon of 8880 M⁻¹ s⁻¹.
B3 was tested, and the Kd was 1.68 nM, the koff was 1.64e-05 s⁻¹ and the kon was 13900 M⁻¹ s⁻¹.

Target: T3, 3-pTza peptide …
Assay: BLI
Settings: not given
Binder B9 has a koff of 9.3e-05 s⁻¹.

Target: 3-pTza peptide (Biotin-AminocaproicAcid-A.G.A.G.3-pTza.A.G.A.G)
Assay: BLI; Octet RED96e; biotinylated peptides captured on streptavidin biosensors at 20 nM; Fab in solution, 20-200 nM; 1x HBS-T, 1% BSA
Settings: not given
Remark: another data set of the same source
Work on B4 yielded a Kd of 0.668 nM, a koff of 0.000135 s⁻¹ and a kon of 203000 M⁻¹ s⁻¹.
B5 gave a Kd of 1.62 nM, a koff of 8.16e-05 s⁻¹ and a kon of 50600 M⁻¹ s⁻¹.
B6 was tested, and the Kd was 0.83 nM, the koff was 0.000186 s⁻¹ and the kon was 224000 M⁻¹ s⁻¹.
B7 was tested, and the Kd was 0.421 nM, the koff was 0.000103 s⁻¹ and the kon was 245000 M⁻¹ s⁻¹.
B8 showed a Kd of 0.892 nM, a koff of 0.000177 s⁻¹ and a kon of 199000 M⁻¹ s⁻¹.

These binders were tested against T4, 3-pHis form of ACLY (120 kDa) (Homo sapiens (HEK293T, endogenous), UniProt P53396, 3-phosphohistidine (site not stated)) (assay: immunoblot; HEK293T whole cell lysate, 30 µg, alkaline 12% SDS-PAGE and alkaline blotting at 4 °C; 0.5 µg/mL IgG as primary antibody, 1 h at room temperature; HRP secondary antibody). Settings: one partner purified.
T4 construct: ACLY (ATP-citrate lyase), 120 kDa band on the immunoblot; source: endogenous, HEK293T lysate
T4 sequence (P53396 whole entry): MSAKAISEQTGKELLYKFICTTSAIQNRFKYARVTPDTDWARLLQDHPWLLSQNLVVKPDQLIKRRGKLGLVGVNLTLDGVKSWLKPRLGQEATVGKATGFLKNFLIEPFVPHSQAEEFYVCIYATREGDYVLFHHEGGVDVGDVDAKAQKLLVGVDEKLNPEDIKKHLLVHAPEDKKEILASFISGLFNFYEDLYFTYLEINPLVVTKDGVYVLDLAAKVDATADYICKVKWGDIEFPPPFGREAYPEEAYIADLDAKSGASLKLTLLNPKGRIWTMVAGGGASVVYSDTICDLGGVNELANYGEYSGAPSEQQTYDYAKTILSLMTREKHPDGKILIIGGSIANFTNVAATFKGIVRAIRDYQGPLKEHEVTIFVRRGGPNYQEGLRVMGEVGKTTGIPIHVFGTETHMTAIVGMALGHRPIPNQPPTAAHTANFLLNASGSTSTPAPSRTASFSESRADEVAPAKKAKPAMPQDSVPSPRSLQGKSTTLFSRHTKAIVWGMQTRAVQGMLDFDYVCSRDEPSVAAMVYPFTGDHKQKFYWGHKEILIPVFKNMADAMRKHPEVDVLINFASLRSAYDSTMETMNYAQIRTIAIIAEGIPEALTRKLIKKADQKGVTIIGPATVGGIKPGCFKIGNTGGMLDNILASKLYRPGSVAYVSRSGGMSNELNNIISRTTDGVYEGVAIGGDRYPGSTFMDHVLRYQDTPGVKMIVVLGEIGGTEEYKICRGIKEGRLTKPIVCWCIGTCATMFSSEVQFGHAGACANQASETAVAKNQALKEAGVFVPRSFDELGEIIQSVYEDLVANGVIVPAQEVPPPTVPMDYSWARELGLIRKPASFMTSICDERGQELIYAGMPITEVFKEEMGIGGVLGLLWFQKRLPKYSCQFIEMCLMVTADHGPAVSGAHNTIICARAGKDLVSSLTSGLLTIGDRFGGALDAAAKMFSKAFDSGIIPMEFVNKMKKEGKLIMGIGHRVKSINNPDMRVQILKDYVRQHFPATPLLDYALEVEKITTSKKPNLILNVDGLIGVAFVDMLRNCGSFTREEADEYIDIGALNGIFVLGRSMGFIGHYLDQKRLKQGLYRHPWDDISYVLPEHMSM
B10: binds.
B11: binds.
B12: binds.

The binders below were run against T5, 3-pHis form of the a-subunit of SCS (30 kDa) (Homo sapiens (HEK293T, endogenous), UniProt P53597, 3-phosphohistidine (site not stated)) in the same assay as above. Settings: one partner purified.
T5 construct: alpha subunit of SCS (succinyl-CoA synthetase), 30 kDa band on the immunoblot; source: endogenous, HEK293T lysate
T5 sequence (P53597 41-346): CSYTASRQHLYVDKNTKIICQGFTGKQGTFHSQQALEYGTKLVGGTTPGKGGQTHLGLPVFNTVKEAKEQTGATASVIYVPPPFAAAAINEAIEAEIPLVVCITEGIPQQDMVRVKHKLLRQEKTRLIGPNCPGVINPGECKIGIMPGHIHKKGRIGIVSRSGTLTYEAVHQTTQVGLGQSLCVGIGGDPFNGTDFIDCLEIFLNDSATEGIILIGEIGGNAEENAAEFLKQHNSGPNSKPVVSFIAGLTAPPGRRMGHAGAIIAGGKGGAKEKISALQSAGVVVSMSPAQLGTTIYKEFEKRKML
B10: binds.
B11: binds.
B12: binds.

These binders were tested against 3-pTza peptide (Biotin-AminocaproicAcid-A.G.A.G.3-pTza.A.G.A.G) (assay: BLI; biotinylated peptide captured on streptavidin biosensors at 20 nM; IgG in solution at 20-200 nM; Octet HTX; 1x HBS-T, 1% BSA). Settings: not given.
In the case of B13, the Kd is reported as 0.588 nM, the koff is reported as 8.32e-05 s⁻¹ and the kon is reported as 141000 M⁻¹ s⁻¹.
B14 showed a Kd of 1.21 nM, a koff of 3e-05 s⁻¹ and a kon of 24900 M⁻¹ s⁻¹.
With B15 the Kd was 0.352 nM, the koff was 1.43e-05 s⁻¹ and the kon was 40700 M⁻¹ s⁻¹.
For B16, the Kd was 0.405 nM, the koff was 7.37e-05 s⁻¹ and the kon was 182000 M⁻¹ s⁻¹.
With B17 the Kd was 0.185 nM, the koff was 6.66e-05 s⁻¹ and the kon was 359000 M⁻¹ s⁻¹.
Binder B18 has a Kd of 2.71 nM, a koff of 3.98e-05 s⁻¹ and a kon of 14700 M⁻¹ s⁻¹.
Binder B19 has a Kd of 0.495 nM, a koff of 4.49e-05 s⁻¹ and a kon of 90600 M⁻¹ s⁻¹.

Target: T1, 3-pHis peptide …
Assay: BLI; Octet HTX; biotinylated peptides captured on streptavidin biosensors at 20 nM; IgG in solution, 20-200 nM; 1x HBS-T, 1% BSA
Settings: not given
In the case of B11, the Kd is reported as 1.6 nM.
B20 gave a Kd of 9.5 nM.

These binders were tested against 3-pTza peptide (Biotin-AminocaproicAcid-A.G.A.G.3-pTza.A.G.A.G) in the same assay as above. Settings: not given.
Binder B9 has a Kd of 1.2 nM.
In the case of B11, the Kd is reported as < 1.54 nM.
For B12, the Kd was < 0.001 nM.
B20 was tested, and the Kd was < 0.001 nM.
